According to US20240165282A1, “CONFORMATIONAL CONSTRAINED SOMATOSTATIN RECEPTOR 3 PEPTIDE LIGANDS AND THEIR CONJUGATES AND USES THEREOF” (STARGET PHARMA LTD., priority 2021, published 2024):
*1 amine or outer side, *2 acyl side, *3 side chain or, on linkers, in order; H or OH if unused. Bridges are numbered along the chain shown (N, C = ends). [ ]: non-standard residue; d: D form. The star is where a group is joined. DOTA = O=C(O)CN1CCN(CC(=O)O)CCN(CC(=O)*)CCN(CC(=O)O)CC1; N(2-mercaptoethyl)Gly = O=C(CN(CCS[*:3])[*:1])[*:2]; Orn = NCCC[C@H](N)C(=O)O; GABA = NCCCC(=O)O

Tests used:
Assay in all cases: Radioligand binding, displacement of 125I-Tyr11-SRIF-14
hSSTR-4 = target: T1, hSSTR-4 (Homo sapiens, UniProt P31391); settings: hSSTR-4
T1 construct: host or cells: Chem-1 (Rat ChemiSCREEN) cells, membrane preparation
From the text: (§1) The binding to human cloned receptors SSTR-1, or SSTR-2 or SSTR-3 evaluated in stable and selective transfected CHO (Chinese Hamster Ovary) cells and binding to STSR-4 and SSTR-5 in stable and selective transfected Chem-1 (Rat ChemiSCREEN) cells. […] The binding reactions were filtered, the filters were washed, and the bound radioactivity was counted using a gamma counter.
(§2) The following table depicts the conditions of binding assay to each of the somatostatin receptors used for the evaluations of binding affinities of the tested peptides. All assays were performed by quantitation method of radioligand binding under 25° C. The vehicle was 1% DMSO, the incubation buffer was 25 mM HEPES, pH 7.4, 5 mM MgCl2, 1 mM CaCl2, 0.1% BSA. […] The significance criteria were >50% of max inhibition. […] This specific binding data used for calculation of Bmax values which is the concentration of each of the expressed cloned receptor in its transfected cell system.
(§3) The Results of IC50 values were determined by a non-linear, least squares regression analysis using MathIQ™ (ID Business Solutions Ltd., UK). […] The Hill coefficient (nH), defining the slope of the competitive binding curve, was calculated using MathIQ™.

SSTR5 = SSTR5 (Homo sapiens, UniProt P35346); design: host or cells: Chem-1 (Rat ChemiSCREEN) cells, membrane preparation; settings: hSSTR-5
From the text: as §1, §2, §3

SSTR1 = SSTR1 (Homo sapiens, UniProt P30872); design: host or cells: CHO (Chinese Hamster Ovary) cells, membrane preparation; settings: hSSTR-1
From the text: as §1, §2, §3

SSTR2 = SSTR2 (Homo sapiens, UniProt P30874); design: host or cells: CHO (Chinese Hamster Ovary) cells, membrane preparation; settings: hSSTR-2
From the text: as §1, §2, §3

SSTR3 = SSTR3 (Homo sapiens, UniProt P32745); design: host or cells: CHO (Chinese Hamster Ovary) cells, membrane preparation; settings: for % displacement of [^125I] Tyr^11-SRIF-14: hSSTR-3
From the text: as §1, §2, §3

Chain of SSTR3 (P32745 whole entry): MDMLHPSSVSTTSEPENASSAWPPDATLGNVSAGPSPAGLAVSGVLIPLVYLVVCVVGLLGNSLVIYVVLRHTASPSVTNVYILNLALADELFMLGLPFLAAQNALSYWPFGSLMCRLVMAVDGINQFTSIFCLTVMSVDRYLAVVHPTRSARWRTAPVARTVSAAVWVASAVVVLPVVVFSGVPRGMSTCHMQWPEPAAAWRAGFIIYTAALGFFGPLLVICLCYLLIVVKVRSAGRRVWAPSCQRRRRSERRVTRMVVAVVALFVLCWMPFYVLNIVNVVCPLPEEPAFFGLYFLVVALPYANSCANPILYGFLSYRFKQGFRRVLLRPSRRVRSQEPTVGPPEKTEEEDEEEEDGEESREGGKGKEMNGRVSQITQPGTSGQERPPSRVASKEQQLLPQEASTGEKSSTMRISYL
Chain of SSTR5 (P35346 whole entry): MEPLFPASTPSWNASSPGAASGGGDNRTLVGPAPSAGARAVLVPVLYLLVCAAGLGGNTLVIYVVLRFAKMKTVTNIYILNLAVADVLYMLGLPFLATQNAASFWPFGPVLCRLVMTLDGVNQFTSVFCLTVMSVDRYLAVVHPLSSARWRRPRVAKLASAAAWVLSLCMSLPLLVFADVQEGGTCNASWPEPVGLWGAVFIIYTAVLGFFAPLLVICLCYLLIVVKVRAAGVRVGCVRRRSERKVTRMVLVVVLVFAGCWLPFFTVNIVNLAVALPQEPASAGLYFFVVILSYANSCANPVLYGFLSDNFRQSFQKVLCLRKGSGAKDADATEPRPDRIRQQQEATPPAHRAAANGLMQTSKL
T1 sequence (P31391 whole entry): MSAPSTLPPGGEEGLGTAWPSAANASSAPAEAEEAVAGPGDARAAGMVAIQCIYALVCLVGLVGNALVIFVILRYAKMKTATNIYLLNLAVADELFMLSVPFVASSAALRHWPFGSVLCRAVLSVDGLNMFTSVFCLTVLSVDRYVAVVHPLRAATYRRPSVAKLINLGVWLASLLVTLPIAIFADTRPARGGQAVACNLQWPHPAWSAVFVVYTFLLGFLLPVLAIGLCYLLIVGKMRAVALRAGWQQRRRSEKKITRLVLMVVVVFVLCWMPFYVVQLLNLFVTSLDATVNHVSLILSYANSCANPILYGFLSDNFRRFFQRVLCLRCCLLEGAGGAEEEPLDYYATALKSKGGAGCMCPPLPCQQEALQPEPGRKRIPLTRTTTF
Chain of SSTR1 (P30872 whole entry): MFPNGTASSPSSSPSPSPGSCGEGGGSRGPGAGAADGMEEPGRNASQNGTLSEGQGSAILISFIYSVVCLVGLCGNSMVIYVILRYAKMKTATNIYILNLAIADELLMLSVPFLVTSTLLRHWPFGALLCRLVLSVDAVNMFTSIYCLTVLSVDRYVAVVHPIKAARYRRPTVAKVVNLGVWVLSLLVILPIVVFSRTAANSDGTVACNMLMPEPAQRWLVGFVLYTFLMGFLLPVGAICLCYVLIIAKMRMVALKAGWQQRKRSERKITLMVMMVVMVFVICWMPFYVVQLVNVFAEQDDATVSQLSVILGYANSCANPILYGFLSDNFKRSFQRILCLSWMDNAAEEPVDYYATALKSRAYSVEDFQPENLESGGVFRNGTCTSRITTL
Chain of SSTR2 (P30874 whole entry): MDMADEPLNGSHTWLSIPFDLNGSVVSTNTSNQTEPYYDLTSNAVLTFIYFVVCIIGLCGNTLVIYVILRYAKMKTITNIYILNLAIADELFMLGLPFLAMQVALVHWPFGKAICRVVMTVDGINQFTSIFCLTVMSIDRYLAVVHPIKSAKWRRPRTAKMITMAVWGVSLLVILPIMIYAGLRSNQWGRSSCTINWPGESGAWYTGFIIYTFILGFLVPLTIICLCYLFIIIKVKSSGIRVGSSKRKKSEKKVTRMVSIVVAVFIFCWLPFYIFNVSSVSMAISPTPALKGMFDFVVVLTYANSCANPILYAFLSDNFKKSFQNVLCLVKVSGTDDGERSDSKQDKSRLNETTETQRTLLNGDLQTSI

Substance | % displacement of [^125I] Tyr^11-SRIF-14 (hSSTR-4; at 1 nM (in brackets)) | % displacement of [^125I] Tyr^11-SRIF-14 (hSSTR-4; at 10 nM) | % displacement of [^125I] Tyr^11-SRIF-14 (SSTR5; at 1 nM (in brackets)) | % displacement of [^125I] Tyr^11-SRIF-14 (SSTR5; at 10 nM) | % displacement of [^125I] Tyr^11-SRIF-14 (SSTR1; at 1 nM (in brackets)) [%] | % displacement of [^125I] Tyr^11-SRIF-14 (SSTR1; at 10 nM) [%] | % displacement of [^125I] Tyr^11-SRIF-14 (SSTR2; at 1 nM (in brackets)) | % displacement of [^125I] Tyr^11-SRIF-14 (SSTR2; at 10 nM) | affinity and selectivity to SSTR3 (in words) (SSTR3; binding data) | % displacement of [^125I] Tyr^11-SRIF-14 (SSTR3; at 1 nM (in brackets)) [%] | % displacement of [^125I] Tyr^11-SRIF-14 (SSTR3; at 10 nM) [%]
gallium labelled DOTA-GABA-D-Phe^1-Arg^2-Cys^3-Phe^4-D-Trp^5-Lys^6-Thr^7-Phe^8-NTEG^9-NH2 (cyclo 3-9) ({DOTA-GABA}-[dF]RCF[dW]KTF[N(2-mercaptoethyl)Gly]-NH2; disulfide 3-9; also: gallium complex of DOTA) [SEQ ID NO: 8] | 5% | 4% | 0% | 15% | 0 | 10 | 0% | 10% | maintains the same affinity and selectivity to SSTR3 as SEQ ID NO. 1, and SEQ ID NO. 3-7 | 61 | 88
(DOTA)2-Lys^1-D-Phe^2-Arg^3-Cys^4-Phe^5-D-Trp^6-Lys^7-Thr^8-Phe^9-NTEG^10-NH2 (cyclo 3-9) ({DOTA}-K(DOTA)[dF]RCF[dW]KTF[N(2-mercaptoethyl)Gly]-NH2; disulfide 4-10 (inferred); not fully specified; printed as (DOTA)2-Lys1-D-Phe2-Arg3-Cys4-Phe5-D-Trp6-Lys7-Thr8-Phe9-NTEG10-NH2 (cyclo 3-9)) [SEQ ID NO: 16] | 0(0) % | 0(0) % | 0% | 3% | 0 | 5 | 6% | 2% | – | 47 | 88
DOTA-Phe^1-D-Phe^2-Arg^3-(Cys^4-Phe^5-D-Trp^6-Lys^7-Thr^8-Phe^9-NTEG^10)-NH2 (cyclo 4-10) ({DOTA}-F[dF]RCF[dW]KTF[N(2-mercaptoethyl)Gly]-NH2; disulfide 4-10; SMILES C[C@@H](O)[C@@H]1NC(=O)[C@H](CCCCN)NC(=O)[C@@H](Cc2c[nH]c3ccccc23)NC(=O)[C@H](Cc2ccccc2)NC(=O)[C@@H](NC(=O)[C@H](CCCNC(=N)N)NC(=O)[C@@H](Cc2ccccc2)NC(=O)[C@H](Cc2ccccc2)NC(=O)CN2CCN(CC(=O)O)CCN(CC(=O)O)CCN(CC(=O)O)CC2)CSSCCN(CC(N)=O)C(=O)[C@H](Cc2ccccc2)NC1=O) [SEQ ID NO: 20] | 0(0) % | 0(0) % | 0(0) % | 0(0) % | 8 | 14 | 0% | 2% | – | 66 | 95
DOTA-D-Phe^1-Glu^2-Orn^3-Cys^4-Phe^5-D-Trp^6-Lys^7-Thr^8-Phe^9-NTEG^10-NH2 (cyclo 4-10) ({DOTA}-[dF]E[Orn]CF[dW]KTF[N(2-mercaptoethyl)Gly]-NH2; disulfide 4-10; SMILES C[C@@H](O)[C@@H]1NC(=O)[C@H](CCCCN)NC(=O)[C@@H](Cc2c[nH]c3ccccc23)NC(=O)[C@H](Cc2ccccc2)NC(=O)[C@@H](NC(=O)[C@H](CCCN)NC(=O)[C@H](CCC(=O)O)NC(=O)[C@@H](Cc2ccccc2)NC(=O)CN2CCN(CC(=O)O)CCN(CC(=O)O)CCN(CC(=O)O)CC2)CSSCCN(CC(N)=O)C(=O)[C@H](Cc2ccccc2)NC1=O) [SEQ ID NO: 23] | 0(0) % | 0(0) % | 0(0) % | 0(0) % | 4 | 6 | 0(0) % | 0(0) % | – | 19 | 56
DOTA-D-Phe^1-Arg^2-Cys^3-Tyr^4-D-Trp^5-Lys^6-Thr^7-Phe^8-NTEG^9-NH2 (cyclo 3-9) ({DOTA}-[dF]RCY[dW]KTF[N(2-mercaptoethyl)Gly]-NH2; disulfide 3-9; SMILES C[C@@H](O)[C@@H]1NC(=O)[C@H](CCCCN)NC(=O)[C@@H](Cc2c[nH]c3ccccc23)NC(=O)[C@H](Cc2ccc(O)cc2)NC(=O)[C@@H](NC(=O)[C@H](CCCNC(=N)N)NC(=O)[C@@H](Cc2ccccc2)NC(=O)CN2CCN(CC(=O)O)CCN(CC(=O)O)CCN(CC(=O)O)CC2)CSSCCN(CC(N)=O)C(=O)[C@H](Cc2ccccc2)NC1=O) [SEQ ID NO: 25] | 5% | 8% | 6% | 16% | 1 | 15 | 0(0) % | 0(0) % | – | 65 | 94
H-Phe^1-Arg^2-Cys^3-Phe^4-D-Trp^5-Lys^6-Thr^7-Tyr^8-NTEG^9-NH2 (cyclo 3-9) (H-XRCF[dW]KTY[N(2-mercaptoethyl)Gly]-NH2; disulfide 3-9; not fully specified (residue 1); printed as H-Phe1-Arg2-Cys3-Phe4-D-Trp5-Lys6-Thr7-Tyr8-NTEG9-NH2 (cyclo 3-9)) [SEQ ID NO: 26] | 0(0) % | 0(0) % | 0% | 1% | 0 | 24 | 0(0) % | 0(0) % | – | 53 | 86
DOTA-Gly^1-D-Phe^2-Arg^3-Cys^4-Phe^5-D-Trp^6-Lys^7-Thr^8-Phe^9-NTEG^10-NH2 (cyclo 4-10) ({DOTA}-G[dF]RCF[dW]KTF[N(2-mercaptoethyl)Gly]-NH2; disulfide 4-10; SMILES C[C@@H](O)[C@@H]1NC(=O)[C@H](CCCCN)NC(=O)[C@@H](Cc2c[nH]c3ccccc23)NC(=O)[C@H](Cc2ccccc2)NC(=O)[C@@H](NC(=O)[C@H](CCCNC(=N)N)NC(=O)[C@@H](Cc2ccccc2)NC(=O)CNC(=O)CN2CCN(CC(=O)O)CCN(CC(=O)O)CCN(CC(=O)O)CC2)CSSCCN(CC(N)=O)C(=O)[C@H](Cc2ccccc2)NC1=O) [SEQ ID NO: 11] | 0(0) % | 0(0) % | 0(0) % | 0(0) % | 2 | 19 | 0(0) % | 0(0) % | – | 47 | 88
DOTA-Lys^1-D-Phe^2-Arg^3-Gly^4-Asp^5-Glu^6-GABA-D-Phe^7-Lys^8-Cys^9-Phe^10-D-Trp^11-Lys^12- Thr^13-Phe^14-NTEG^15-NH2 (cyclo 1-6; cyclo 9-15) ({DOTA}-K[dF]RGDE[GABA][dF]KCF[dW]KTF[N(2-mercaptoethyl)Gly]-NH2; lactam 1-6; disulfide 10-16; not fully specified; printed as DOTA-Lys1-D-Phe2-Arg3-Gly4-Asp5-Glu6-GABA-D-Phe7-Lys8-Cys9-Phe10-D-Trp11-Lys12- Thr13-Phe14-NTEG15-NH2 (cyclo 1-6, cyclo 9-15); numbers in words are those of the source; also: cyclo 1-6 listed as disulfide between Lys1 and Glu6) [SEQ ID NO: 17] | 7% | 5% | 15% | 13% | 9 | 15 | 11% | 8% | – | 68 | 91
